Test results: EP2025683A1 (INSERM (Institut National de la Santé et de la Recherche …, dated 2009)

T1: human prolactin receptor (human, UniProt P16471 25-622)
T1 sequence (looked up): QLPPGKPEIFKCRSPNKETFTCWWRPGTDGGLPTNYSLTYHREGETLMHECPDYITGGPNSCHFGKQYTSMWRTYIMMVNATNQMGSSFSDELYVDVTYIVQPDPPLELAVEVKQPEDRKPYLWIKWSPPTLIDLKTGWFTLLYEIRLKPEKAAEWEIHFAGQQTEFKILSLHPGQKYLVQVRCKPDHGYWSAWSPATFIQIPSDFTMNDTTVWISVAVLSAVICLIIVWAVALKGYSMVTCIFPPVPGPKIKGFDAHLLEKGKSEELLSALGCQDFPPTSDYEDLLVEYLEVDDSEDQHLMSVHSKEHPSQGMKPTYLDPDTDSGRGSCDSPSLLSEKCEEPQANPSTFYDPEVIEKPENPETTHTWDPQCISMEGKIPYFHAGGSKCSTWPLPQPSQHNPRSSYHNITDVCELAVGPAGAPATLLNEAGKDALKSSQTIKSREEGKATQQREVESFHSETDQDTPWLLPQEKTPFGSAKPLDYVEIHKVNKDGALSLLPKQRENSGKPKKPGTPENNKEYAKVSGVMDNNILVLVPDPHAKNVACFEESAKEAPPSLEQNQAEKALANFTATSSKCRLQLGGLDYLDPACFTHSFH

B1: G129D-hPRL (ligand, human, UniProt P01236 29-227, looked up)
chain: LPICPGGAARCQVTLRDLFDRAVVLSHYIHNLSSEMFSEFDKRYTHGRGFITKAINSCHTSSLATPEDKEQAQQMNQKDFLSLIVSILRSWNEPLYHLVTEVRGMQEAPEAILSKAVEIEEQTKRLLEDMELIVSQVHPETKENEIYPVWSGLPSLQMADEESRLSAYYNLLHCLRRDSHKIDNYLKLLKCRIIHNNNC
B2: G129L-hPRL (ligand, human, UniProt P01236 29-227, looked up)
chain: LPICPGGAARCQVTLRDLFDRAVVLSHYIHNLSSEMFSEFDKRYTHGRGFITKAINSCHTSSLATPEDKEQAQQMNQKDFLSLIVSILRSWNEPLYHLVTEVRGMQEAPEAILSKAVEIEEQTKRLLELMELIVSQVHPETKENEIYPVWSGLPSLQMADEESRLSAYYNLLHCLRRDSHKIDNYLKLLKCRIIHNNNC
B3: G129V-hPRL (ligand, human, UniProt P01236 29-227, looked up)
chain: LPICPGGAARCQVTLRDLFDRAVVLSHYIHNLSSEMFSEFDKRYTHGRGFITKAINSCHTSSLATPEDKEQAQQMNQKDFLSLIVSILRSWNEPLYHLVTEVRGMQEAPEAILSKAVEIEEQTKRLLEVMELIVSQVHPETKENEIYPVWSGLPSLQMADEESRLSAYYNLLHCLRRDSHKIDNYLKLLKCRIIHNNNC
B4: G129P-hPRL (ligand, human, UniProt P01236 29-227, looked up)
chain: LPICPGGAARCQVTLRDLFDRAVVLSHYIHNLSSEMFSEFDKRYTHGRGFITKAINSCHTSSLATPEDKEQAQQMNQKDFLSLIVSILRSWNEPLYHLVTEVRGMQEAPEAILSKAVEIEEQTKRLLEPMELIVSQVHPETKENEIYPVWSGLPSLQMADEESRLSAYYNLLHCLRRDSHKIDNYLKLLKCRIIHNNNC
B5: G129F-hPRL (ligand, human, UniProt P01236 29-227, looked up)
chain: LPICPGGAARCQVTLRDLFDRAVVLSHYIHNLSSEMFSEFDKRYTHGRGFITKAINSCHTSSLATPEDKEQAQQMNQKDFLSLIVSILRSWNEPLYHLVTEVRGMQEAPEAILSKAVEIEEQTKRLLEFMELIVSQVHPETKENEIYPVWSGLPSLQMADEESRLSAYYNLLHCLRRDSHKIDNYLKLLKCRIIHNNNC
B6: G129R-hPRL (ligand, human, UniProt P01236 29-227, looked up)
chain: LPICPGGAARCQVTLRDLFDRAVVLSHYIHNLSSEMFSEFDKRYTHGRGFITKAINSCHTSSLATPEDKEQAQQMNQKDFLSLIVSILRSWNEPLYHLVTEVRGMQEAPEAILSKAVEIEEQTKRLLERMELIVSQVHPETKENEIYPVWSGLPSLQMADEESRLSAYYNLLHCLRRDSHKIDNYLKLLKCRIIHNNNC
notes: mature
B7: G129N-hPRL (ligand, human, UniProt P01236 29-227, looked up)
chain: LPICPGGAARCQVTLRDLFDRAVVLSHYIHNLSSEMFSEFDKRYTHGRGFITKAINSCHTSSLATPEDKEQAQQMNQKDFLSLIVSILRSWNEPLYHLVTEVRGMQEAPEAILSKAVEIEEQTKRLLENMELIVSQVHPETKENEIYPVWSGLPSLQMADEESRLSAYYNLLHCLRRDSHKIDNYLKLLKCRIIHNNNC
B8: G129Y-hPRL (ligand, human, UniProt P01236 29-227, looked up)
chain: LPICPGGAARCQVTLRDLFDRAVVLSHYIHNLSSEMFSEFDKRYTHGRGFITKAINSCHTSSLATPEDKEQAQQMNQKDFLSLIVSILRSWNEPLYHLVTEVRGMQEAPEAILSKAVEIEEQTKRLLEYMELIVSQVHPETKENEIYPVWSGLPSLQMADEESRLSAYYNLLHCLRRDSHKIDNYLKLLKCRIIHNNNC

Each molecule was assayed against T1, human prolactin receptor (assay: cell-based or functional assay).
With “Del1-9-G129R-hPRL (from UniProt P01236 29-227) (ligand)” the Agonism Ba/F-LP cells (% of hPRL max activity) (% of hPRL max activity) was 8.3 and the Antagonism HL-5 cells IC50 was 120 nM.
B1 was tested, and the “Agonism Ba/F-LP cells (% of hPRL max activity)” value was 23.6 % of hPRL max activity and the “Antagonism HL-5 cells IC50” value was 340 nM.
In the case of B2, the “Agonism Ba/F-LP cells (% of hPRL max activity)” value is reported as 16.8 % of hPRL max activity and the “Antagonism HL-5 cells IC50” value is reported as 160 nM.
In the case of B3, the “Agonism Ba/F-LP cells (% of hPRL max activity)” value is reported as 14.2 % of hPRL max activity and the “Antagonism HL-5 cells IC50” value is reported as 110 nM.
With B4 the “Agonism Ba/F-LP cells (% of hPRL max activity)” value was 90.4 % of hPRL max activity and the “Antagonism HL-5 cells IC50” value was 340 nM.
For B5, the “Agonism Ba/F-LP cells (% of hPRL max activity)” value was 19.1 % of hPRL max activity and the “Antagonism HL-5 cells IC50” value was 110 nM.
In the case of B6, the “Agonism Ba/F-LP cells (% of hPRL max activity)” value is reported as 45.5 % of hPRL max activity and the “Antagonism HL-5 cells IC50” value is reported as 200 nM.
In the case of B7, the “Agonism Ba/F-LP cells (% of hPRL max activity)” value is reported as 26.4 % of hPRL max activity and the “Antagonism HL-5 cells IC50” value is reported as 130 nM.
B8 was tested, and the “Agonism Ba/F-LP cells (% of hPRL max activity)” value was 24.3 % of hPRL max activity and the “Antagonism HL-5 cells IC50” value was 190 nM.

These molecules were tested against T1, human prolactin receptor (assay: displacement of [125I]-hPRL, homogenates of HEK 293 cells stably expressing hPRLR (HL-5 clone)).
With B6 the IC50 was 19 nM and the “affinity relative to WT hPRL” value was ~1 order of magnitude lower than WT hPRL.
